From the DeepSol protein solubility set come the findings set out here.

This data set in a line: soluble on expression in E. coli; label from the status in PepcDB or PDB records.
“MAHHHHHHSLITANDIRAAHARGEQAMSVVLRASIITPEAREVAELLGFTITECDESVPASTSAQACKSESQRIREAIIAQLPEGQFTESLVAQLMEKVLKEKQSLELGTMQPSFTSVTGKGGVKVIDGSSVKFGRFDGAEPHCVGLTDLVTEQDGSSMAAGFMQWDNAFFPWTLNYDEIDMVLEGELHVRHEGETMIAKAGDVMFIPKGSSIEFGTPTSVRFLYVAWPANWQSVEG”: the “soluble on expression in E. coli” value is “soluble”.

Turning to “MKKPNHSGSGQIRIIGGQWRGRKLPVPDSPGLRPTTDRVRETLFNWLAPVIVDAQCLDCFAGSGALGLEALSRYAAGATLIEMDRVVSQQLIKNLATLKAGNARVVNSNAMSFLAQKGTPHNIVFVDPPFRRGLLEETINLLEDNGWLADEALIYVESEVENGLPTVPANWSLHREKVAGQVAYRLYQHEAQGESDAD”, the “soluble on expression in E. coli” value is “not soluble”. Take “MSMPYDNEAKIKQAVILLQKIVNDTSVPRNIRRAATDAIRNLQDLGLSPAVRAANAIGILEDISQDPNMPTHARISIWNVVSILETVKD”: the “soluble on expression in E. coli” value is “not soluble”. As to “MALLERILARDNLITALKRVEANQGAPGIDGVSTDQLRDDVRAHWSTIRAQLLAGTYRPAPVRRVEIPKPGGGTRQLGIPTVVDRLIQQAILQELTPIFDPDFSPSSFGFRPGRNAHDAVRQAQGYIQEGYRYVVDMDLEKFFDRVNHDILMSRVARKVKDKRVLKLIRAYLQAGVMIEGVKVQTEEGTPQGGPLSPLLANILLDDLDKELEKRGLKFCRYADDCNIYVKSLRAGQRVKQSIQRFLEKTLKLKVNEEKSAVDRPWKRAFLGFSFTPERKARIRLAPRSIQRLKQRIRQLTNPNWSISMPERIHRVNQYVMGWIGYFRLVETPSVLQTIEGWIRRRLRLCQWLQWKRVRTRIRELRALGLKETAVMEIANTRKGAWRTTKTPQLHQALGKTYWTAQGLKSLTQRYFELRQG”, the “soluble on expression in E. coli” value is “not soluble”.

In the case of “MKKIIALMLFLTFFAHANDSEPGSQYLKAAEAGDRRAQYFLADSWFSSGDLSKAEYWAQKAADSGDADACALLAQIKITNPVSLDYPQAKVLAEKAAQAGSKEGEVTLAHILVNTQAGKPDYPKAISLLENASEDLENDSAVDAQMLLGLIYANGVGIKADDDKATWYFKRSSAISRTGYSEYWAGMMFLNGEEGFIEKNKQKALHWLNLSCMEGFDTGCEEFEKLTNGLEHHHHHH”, the “soluble on expression in E. coli” value is on record as “not soluble”. For the sequence “GLGKFIETCRNTQLAGSSELAAECKTRAQQFVSTKINLDDHIANIDGTLKWQPSNFSQTCYNSAIQGSVLTSTCERTNGGYNTSSIDLNSVIENVDGSLKYE”, the “soluble on expression in E. coli” value is listed as “soluble”.

For “MGSDKIHHHHHHMWIVLDTNIYFNQWLLEGANFRVFRNFCNNTGATLLLPEVVKQEVQNKYDGELAQARIELDKLAAKFSKLGVECPSNLVVSDDYDFDQLVREQYRNVILVPYSGVAHEQLVEKALAPKLPFREKEKGYRDALMWLSILDYVKESGFKESIHFVNANSKDFYSNKSGGLTLHEDLKDDLRARNMETNIIPYTSLNEFVEGHVLQELHGVDWMDFYSEFNGELDSDVCVEAIAWLDECSLSVLREKLVEANYPGLIMDGVFAASFETWDGVEDSDILAMRKIDEDRYFIDYAFDIRGLEVKLLSSPTSPASGYFGAYIDVEIDNDLATTSFFTRADFKASVVFNITAEVVEDVDVTSFKFRPR”, the “soluble on expression in E. coli” value is “not soluble”. To “MVLYFIGLGLYDERDITVKGLEIAKKCDYVFAEFYTSLMAGTTLGRIQKLIGKEIRVLSREDVELNFENIVLPLAKENDVAFLTPGDPLVATTHAELRIRAKRAGVESYVIHAPSIYSAVGITGLHIYKFGKSATVAYPEGNWFPTSYYDVIKENAERGLHTLLFLDIKAEKRMYMTANEAMELLLKVEDMKKGGVFTDDTLVVVLARAGSLNPTIRAGYVKDLIREDFGDPPHILIVPGKLHIVEAEYLVEIAGAPMEILRVNV” belongs “soluble”; to “MSHDFAHTELEELLTRTREAIEASFGNRSPQVEVRGEGTDPDGHVRAVAVSGGRIETVEIAPQAVRLGSHRLAECALAAVNAALADLEAKAAEAAGLTGPQADALRERLREMQDLSLQQLRSYSRSLQDLMNSFERS”, “not soluble”. With “MSLSEVDIAKADPAAASHPLLLNGDATVAQKNPGSVAENNLCSQYEEKVRPCIDLIDSLRALGVEQDLALPAIAVIGDQSSGKSSVLEALSGVALPRGSGIVTRCPLVLKLKKLVNEDKWRGKVSYQDYEIEISDASEVEKEINKAQNAIAGEGMGISHELITLEISSRDVPDLTLIDLPGITRVAVGNQPADIGYKIKTLIKKYIQRQETISLVVVPSNVDIATTEALSMAQEVDPEGDRTIGILTKPDLVDKGTEDKVVDVVRNLVFHLKKGYMIVKCRGQQEIQDQLSLSEALQREKIFFENHPYFRDLLEEGKATVPCLAEKLTSELITHICKSLPLLENQIKETHQRITEELQKYGEGHHHHHH”, the “soluble on expression in E. coli” value was “not soluble”. Take “MGSDKIHHHHHHMMQGFLLQTQSIRDEDLIVRVLTKNQLKTLYRFYGKRHSVLNVGRKIDFEEENDDKFLPKLRNILHLGYIWEREMERLFFWQRFCALLFRHLEGVHSLDSVYFDTLDDGANKLAKQHPLRVILEMYATLLNFEGRLQSYNSCFLCDAKLERSVALAQGFILAHPSCLKAKSLNLEKIQAFFRTQSTIDLETEEVEELWRTLNLGF”: the “soluble on expression in E. coli” value is given as “not soluble”. As to “MGHHHHHHSHMDPEVTLLLQCPGGGLPQEQIQAELSPAHDRRPLPGGDEAITAIWETRLKAQPWLFDAPKFRLHSATLAPIGSRGPQLLLRLGLTSYRDFLGTNWSSSAAWLRQQGATDWGDTQAYLADPLGVGAALATADDFLVFLRRSRQVAEAPGLVDVPGGHPEPQALCPGGSPQHQDLAGQLVVHELFSSVLQEICDEVNLPLLTLSQPLLLGIARNETSAGRASAEFYVQCSLTSEQVRKHYLSGGPEAHESTGIFFVETQNVRRLPETEMWAELCPSAKGAIILYNRVQGSPTGAALGSPALLPPL”, the “soluble on expression in E. coli” value is “not soluble”. For “MSLTTELVDWTHEQKCRKAVASLEKNGFTAVYCGTGQEALEYIVAEAAEAESVGFGGSMSVDDLKVIERIREMGKELLIHGAPGLSLEERVTIMRRQLTCDLFLAGTNALTLSGWLVNIDATGNRVGSMFFGPRKVIVVAGRNKIVDGGVQEAIDRIKEWASPPNARRLNYKTPCGTTGFCSDCNSPDRICRITTVIDRKPRLTDLRVLVVNEEMGFLEHHHHHH”, the “soluble on expression in E. coli” value is “soluble”.

With “MAHHHHHHMQFVVVDGSWPVVPCAIPRSQLLARSVKDTDHGEDGGGQSVLPGHALFTLCQEVLDTSASKTKAPPELATLDMTFLRDPQSGPLGALRLYTFKSVSHQFFAVEDLVSSGCLIVFTSHWASLTSAALLTGVRTTHKEKDDSAKSSRRRIENNTGSGTREVSASRASSLMGRGRSVLQKFSRAETYFTSVASATQRDFEMVNELLLSGTIRMNAHLESFLCSVCGNLPRRTMTTSCCGAVVCLLCAPTLSSSSVLREEVVCAVCGEMPLTNPEAHVSRDAEVMRLVRELRVLYHPQVSAAACRAMPGETQPPPTPFNVHHAGLPVPICDMNEPTGSVLGSVFMGPS”, the “soluble on expression in E. coli” value was “not soluble”.

Regarding “MNSRGLILTLGVVIAVAFAQQDSEVEREMMKRKSAYMRFGRSDGGNPMEMEKRKSAYMRFGKRSSGGDEQELVGGDDIDMEKRKSAYMRFGKRSGPQEDDMPMEKRKSAYMRFGKRSSDMEVIGNEGVDGDAHDLFKRKSAYMRFGKRSMGEEEDHDMMKRKSAYMRFGR”, the “soluble on expression in E. coli” value was “not soluble”.

Regarding “RPAEEIIQGQIEVTEYRVSSKVPGRIKELRVSEGQQVQAGDTLAVIEAPDVAAKMEQAKAAEAAAQAQNAKALKGARSEQIQAAYEMWQKAQAGVAIATKTHQRVQNLYDQGVVPAQKLDEATAQRDAAIATQKAAEAQYNMARNGAEREDKLAASALVDRARGAVAEVESYINETYLIAPRAGEVSEIFPKAGELVGTGAPIMNIAEMGDMWASFAVRED”, the “soluble on expression in E. coli” value is “not soluble”. For “MSLSFLKHVQDCNTHDLSNFVRFVIEGRRVGWVRKALAQRLKAHGRVFDVTRDAVLLSASLRTPQSRTRAVADVVDRLADEGVVPAPRGELYRVNQSWGEPTLMLLDRAVVPTFGVRAYGVHLNGYVGAGADLHLWIGRRSPDKSVAPGKLDNMVAGGQPADLSLRQNLIKECAEEADLPEALARQAIPVGAITYCMESPAGIKPDTLFLYDLALPEDFRPHNTDGEMADFMLWPAAKVVEAVRTTEAFKFNVNLTVIDFAIRHGLIDPDNEPDYQEILAGLRGRPRERAASEGHHHHHH”, the “soluble on expression in E. coli” value was “soluble”.
